In this experiment the target is T1, nSR100 (Mus musculus, UniProt Q8BKA3).
T1 construct: host or cells: mouse N2A cells
T1 sequence (Q8BKA3 1-608): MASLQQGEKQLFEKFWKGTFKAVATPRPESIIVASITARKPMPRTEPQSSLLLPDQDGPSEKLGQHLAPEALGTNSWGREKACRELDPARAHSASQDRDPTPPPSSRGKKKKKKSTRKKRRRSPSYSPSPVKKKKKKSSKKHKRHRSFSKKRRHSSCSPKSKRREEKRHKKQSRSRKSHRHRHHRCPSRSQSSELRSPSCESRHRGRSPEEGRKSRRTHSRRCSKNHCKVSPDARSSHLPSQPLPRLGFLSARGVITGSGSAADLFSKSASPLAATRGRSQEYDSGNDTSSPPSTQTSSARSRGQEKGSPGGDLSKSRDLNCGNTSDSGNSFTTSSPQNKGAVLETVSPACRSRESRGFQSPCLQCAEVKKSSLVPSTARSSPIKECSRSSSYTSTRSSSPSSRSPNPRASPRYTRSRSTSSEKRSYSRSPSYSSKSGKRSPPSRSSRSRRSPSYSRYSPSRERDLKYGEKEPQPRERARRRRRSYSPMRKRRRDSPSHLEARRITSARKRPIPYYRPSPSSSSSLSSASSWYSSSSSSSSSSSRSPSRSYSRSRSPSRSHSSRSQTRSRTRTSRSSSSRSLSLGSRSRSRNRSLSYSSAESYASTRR
Kind of experiment: AP-MS nSR100 interaction partners from mouse N2A cells (Table 5). The following applies: for AvgP (average of the SAINT scores) / MaxP (maximal SAINT score): bait Srrm4; for FoldChange between the prey Avg spectra of the bait and control purifications: bait Srrm4, 0.1 added to prevent division by 0; for AvgSpec (average number of spectra per replicate): bait Srrm4, 2 replicates; for Spectra (number of spectra for the prey in the purification of the bait): AP-MS; for SpecSum: bait Srrm4, sum of spectra over 2 replicates. Format: binding.

Setting [1] is: bait Srrm4, biological replicate 1 (first number of the cell).
The mark [2] stands for this setting: bait Srrm4, biological replicate 2 (second number of the cell).

From the text: By applying affinity purification coupled to mass-spectrometry (AP-MS), several interaction nSR100 partner proteins were detected that provide insight into mechanisms of post-translational regulation of nSR100 levels.

B1: Rab5c (protein, UniProt P35278 1-216, looked up)
Ras-related protein Rab-5C: MAGRGGAARPNGPAAGNKICQFKLVLLGESAVGKSSLVLRFVKGQFHEYQESTIGAAFLTQTVCLDDTTVKFEIWDTAGQERYHSLAPMYYRGAQAAIVVYDITNTDTFARAKNWVKELQRQASPNIVIALAGNKADLASKRAVEFQEAQAYADDNSLLFMETSAKTAMNVNEIFMAIAKKLPKNEPQNAAGAPGRTRGVDLQESNPASRSQCCSN
As for B1, the “AvgP (average of the SAINT scores)” value stood at 0.97; the “MaxP (maximal SAINT score)” value came to 0.99; the “FoldChange between the prey Avg spectra of the bait and control purifications” value (“FoldChange between the prey Avg spectra” for short) is 25; the “AvgSpec (average number of spectra per replicate)” value is 2.5. The SpecSum is 5. In addition, the “Spectra (number of spectra for the prey in the purification of the bait)” value under setting [1] is listed as 3. The “Spectra (number of spectra for the prey in the purification of the bait)” value under setting [2] is recorded as 2.

B2: Sfswap (protein, UniProt Q3USH5 1-945, looked up)
Splicing factor, suppressor …: MYGAGGGRAKPERKGGVKEEAGPGGTGTGGNRVELLVFGYACKLFRDDERALAQEQGQHLIPWMGDPKILIDRYDGRGHLHDLSAYDAEYATWNRDYQLSEEEARVEALCDEERYLALHTDLLEEEARQEEEYKRLSEALAEDGNYSAVGFTYGSDYYDPSEPTEEEEPSKQREKNEAENLEENEEPFIAPLGLSVPSDVELPPTAKMHAIIERTANFVCKQGAQFEIMLKAKQARNSQFDFLRFDHYLNPYYKFIQKAMKEGRYTVLAESKNEEKKKSGPTSDNEEEDDEEDGSYLHPSLFASKKSSRLEELMKPLKVVDPDHPLAALVRKAQADSSAPAPPTADGTPAQPSQVEYTADSTVAAMYYSYYMLPDGTYCLAPPPPGIDVATYYSTLPAGVTVSSSPGVTTTVPPPPGTTPPPPPTTAEPSSGVTSTTTTTSALAPVAIIPPPPDIQPVIDKLAEYVARNGLKFETSVRAKNDQRFEFLQPWHQYNAYYEFKKQFFLQKEGGGSTQAASTAEEAPTETAVEESGEAGEDGAPEGMAETGGRGSGKKEAGSSKSTVDGKLVKASFAPISFAIKAKENDLLPLEKNRVKLDDDSEEDEESRECQESTSSVANPSPAAAPPSVAVEEKKPQLTQEELEAKQAKQKLEDRLAAAAREKLAQASKESKEKQLQAERKRKAALFLQTLKNPLPEAEVGKLEESTFGVEDTGVMPCPLLVGGRTLPILEGKPPERPSNRCRDPPREEEREKKKKKHKKRSRTRSRSPKYHSSSKPRSRSHSKAKHSLPSAYRTVRRSRSRSRSPRRRAHSPERRREERSVPTAYRMSGSPGVSRKRTRSRSPHEKKKKRRSRSRTKAKARSQSTSPSKQAAQRPSAHSAHSASISPVESRGSSQERSRGVSQEKDGQISSAIVSSVQSKITQDLMAKVRAMLAASKNLQTSAS
Take B2: the “AvgP (average of the SAINT scores)” value amounted to 0.97; the “MaxP (maximal SAINT score)” value was determined as 0.99; the “FoldChange between the prey Avg spectra” value is listed as 25; the “AvgSpec (average number of spectra per replicate)” value is reported as 2.5. The molecule further gave a SpecSum of 5. Besides, the “Spectra (number of spectra for the prey in the purification of the bait)” value under setting [1] worked out at 2. For the same molecule, the “Spectra (number of spectra for the prey in the purification of the bait)” value under setting [2] amounted to 3.

B3: Fam76b (protein, UniProt Q80XP8 2-339, looked up)
Protein FAM76B: AASALYACTKCTQRYPFEELSQGQQLCKECRIAHPIVKCTYCRSEFQQESKTNTICKKCAQNVKQFGTPKPCQYCNIIAAFIGTKCQRCTNSEKKYGAPQTCEQCKQQCAFDRKEEGRRKVDGKLLCWLCTLSYKRVLQKTKEQRKSLGSSHSNSSSSSLTEKDQHHSKHHHHHHHHHHRHSSGHHKVSSLSPEQEQGLWKQSHKSSAAIQNETPKKKPKLESKPSNGDSSSINQSADSGGTDNFVLISQLKEEVMSLKRLLQQRDQTILEKDKKLTELKADFQYQESNLRTKMNSMEKAHKETVEQLQAKNRELLKQVAALSKGKKFDKSGSVLTSP
On to B3, for which the “AvgP (average of the SAINT scores)” value turned out to be 0.98; the “MaxP (maximal SAINT score)” value came out at 1; the “FoldChange between the prey Avg spectra” value turned out to be 35; the “AvgSpec (average number of spectra per replicate)” value stood at 3.5. The same molecule returned a SpecSum of 7. The “Spectra (number of spectra for the prey in the purification of the bait)” value under setting [1] turned out to be 2. Besides, under setting [2], the “Spectra (number of spectra for the prey in the purification of the bait)” value came to 5.

B4: Grpel1 (protein, UniProt Q99LP6 28-217, looked up)
GrpE protein homolog 1, …: CTATKQKNNGQNLDEDLGHCEPKTDPPSADKTLLEEKAKLEEQLRETMEKYKRALADTENLRQRSQKLVEEAKLYGIQGFCKDLLEVADILEKATQSVPKEEISNNNPHLKSLYEGLVMTEVQIQKVFTKHGLLRLDPIGAKFDPYEHEALFHTPVEGKEPGTVALVSKVGYKLHGRTLRPALVGVVKDA
B4: the “AvgP (average of the SAINT scores)” value is 0.97; the “MaxP (maximal SAINT score)” value came out at 0.98; the “FoldChange between the prey Avg spectra” value was 3.3; the “AvgSpec (average number of spectra per replicate)” value came out at 16.5. The molecule also gave a SpecSum of 33. In addition, under setting [1], the “Spectra (number of spectra for the prey in the purification of the bait)” value is listed as 16. The “Spectra (number of spectra for the prey in the purification of the bait)” value under setting [2] is listed as 17.

B5: Wdr11 (protein, UniProt Q8K1X1 1-1223, looked up)
WD repeat-containing protein …: MLPYTVNFKVSARTLTGALNAHNKAAVDWGWQGLIAYGCHSLVVVIDSNTAQTLQVLEKHKADIVKVRWARENYHHNIGSPYCLRLASADVTGKIIVWDVAAGVAQCEIQEHVKPIQDVQWLWNQDASRDLLLAIHPPNYIVLWNADTGTKLWKKSYADNILSFSFDPFDPSHLTLLTSEGIVFISDFSPSKPPSGPGKKVYISSPHSSPAHNKLAAATGAKKALNKVKILITQEKPSADFVALNDCLQLAYLPSKRNHMLLLYPREILILDLEVNQTVGVIAIERTGVPFLQVIPCSQRDGLFCLHENGCITLRVRRSYNSICTTSNDEPDLDPVQELTYDLRSQCDAIRVTKTVRPFSMVCCPVNENAAALIVSDGRVMIWELKSAVCSRNARNSSGVSPLYSPVSFCGIPGGVLQNKLPDLSLDNMIGQSAIAGEEHPKGSILQEVHLKFLLTGLLSGLPSPQFAIRMCPPLTTKNIKTYQPLLAVGTSNGSVLVYHLTSGLLHKELSVHSCEVKGIEWTSLTSFLSFAASTPNNMGLVRNELQLVDLPTGRSTAFRGDRGNDESPIEMIKVSHLKQYLAVVFKDKPLELWDIRTCTLLREMSKSFPAITALEWSPSHNLKSLRKKQLATREAMARQTVVSDAELGAVESSVISLLQEAESKAELSQNISAREHFVFTDNDGQVYHLTVEGNSVKDSARIPPDGSMGSITCIAWKGDTLVLGDMDGNLNFWDLKARVSRGIPTHRSWVRKIRFAPGKGNQKLIAMYNDGAEVWDTKEVQMVSSLRSGRNVTFRILDVDWCTSDKVILASDDGCIRVLEMSMKSTCFRMDEQELVEPVWCPYLLVPRAALALKAFLLHQPWNGRYSLDISHIDYPENEEIKTLLQEQLHALSNDIKKLLLDPDFSLLQRCLLVSRLYGDESELHFWTVAAHYLHSLSQAKSGDTVVTKEGAPKDRLSNPLDICYDVLCENTYFQKFQLERVNLQEVKRSTYDHTRKCTDQLLLLGQTDRAVQLLLETSADNQHYYCDSLKACLVTTVTSSGPSQSTIKLVATNMIANGKLAEGVQLLCLIDKAADACRYLQTYGEWNRAAWLAKVRLNSEECADVLKRWVDHLCSPQVNQKSKALLVLLSLGCFVSVAETLHSMRYFDRAALFVEACLKYGAFEVSEDTEKLIAAIYADYARSLKSLGFRQGAVRFASKAGAAGRDLLNELGSTKEELTES
With B5, the “AvgP (average of the SAINT scores)” value came out at 0.97; the “MaxP (maximal SAINT score)” value is recorded as 1; the “FoldChange between the prey Avg spectra” value turned out to be 30; the “AvgSpec (average number of spectra per replicate)” value is 3. The SpecSum is on record as 6. Besides, the “Spectra (number of spectra for the prey in the purification of the bait)” value under setting [1] is 2. Moreover, the “Spectra (number of spectra for the prey in the purification of the bait)” value under setting [2] was determined as 4.

The values above are taken from patent US10772928B2, “Modulation and detection of a neuronal alternative splicing regulatory network for treatment and diagnosis of neurological disorders” (The Governing Council of the University of Toronto, priority 2014, dated 2020).
